According to publication PMC10907165, “Discovery and structural characterization of the D-box, a conserved TonB motif that couples an inner-membrane motor to outer-membrane transport” (The Journal of Biological Chemistry, 2024):
Ends that are not written are not given here.

B1: ExbD periplasmic domain (E. coli ExbD residues 59-141) (domain or fragment)
chain: GRPEKPVYLSVKADNSMFIGNDPVTDETMITALNALTEGKKDTTIFFRADKTVDYETLMKVMDTLHQAGYLKIGLVGEETAKAK
notes: single glycine residue left upstream of Arg-59 after proteolytic removal of the SUMO tag; ExbD, E. coli, periplasmic domain, residues 59-141 (begins at Arg-59); codon-optimised synthetic gene in pETHSUL; the methods and legends say 59-141; Two copies of this domain hold one D-box peptide in the crystals and by ITC; also called ExbD_(59-141); ExbD C-terminal periplasmic domain; source: E. coli …

Experiments:
[1] = target: the molecule itself; experiment: crystal structure; ExbD periplasmic domain mixed with the D-box peptide; crystals from ammonium sulfate; orthorhombic and tetragonal forms, about 1.4 A
[2] = target: B1; experiment: fluorescence polarisation; fluorescence anisotropy; 100 nM AF488-labeled peptide, ExbD protein varied; 40 mM Tris pH 8.0, 150 mM NaCl; room temperature; conditions: both partners purified
[3] = target: B1; experiment: ITC; D-box peptide (1 mM) injected into 100 uM ExbD protein at 288 K; 10 mM MES pH 5.3, 60 mM NaCl; two-state binding model; conditions: both partners purified

## B1
[1]
  binding result: binds

B2: AF488-labeled D-box peptide (QPISVTMVTPADC) (peptide)
peptide: QPISVTMVTPADC(AF488 maleimide)
notes: TonB, E. coli, residues 43-54 (D-box peptide); cysteine added at the C-terminus for labelling with the maleimide dye; not a TonB residue; also called fluorescently labeled D-box peptide; fluorophore-labeled D-box peptide; source: synthetic peptide (Biomatik Corporation), labelled with AF488-maleimide, purified on a C18 column
[2]
  Kd: 45 ± 9 µM

B3: D-box peptide (residues 43 to 54 of E. coli TonB) (peptide)
peptide: QPISVTMVTPAD
notes: TonB, E. coli, residues 43-54, holds the D-box motif; The description of the crystal structure numbers the peptide Gln-55 to Thr-63, that is 12 higher than the TonB numbers; also called TonB D-box peptide; source: synthetic peptide (VWR Scientific)
[3]
  Kd: 19 ± 1 µM
  stoichiometry N: 0.5 D-box peptide per ExbD
